The source of these data is paper PMC9886983, “Mechanism of regulation of the Helicobacter pylori Cagβ ATPase by CagZ” (Nature Communications, 2023).

For test [1], the target named is Cagβ-AAD1 E350A (Helicobacter pylori 26695). The experiment in a line: ITC; ITC-200 at 25 °C; 20 mM Tris pH 8.0, 150 mM NaCl; Cagβ proteins (20 µM) in the cell, CagZ proteins or peptides (200 µM) in the syringe.
Test [2] has as its target Cagβ-AAD1 (all-alpha domain of Cagβ, residues 289–488) (Helicobacter pylori 26695) (UniProt O25260). The test is described as above.
In test [3] the target is Cagβ-AAD1 N452A (Helicobacter pylori 26695). Described as above.
Test [4] concerns the target Cagβ-AAD1 E314A (Helicobacter pylori 26695). Described as above.
The target of test [5] is Cagβ-AAD1 D309A (Helicobacter pylori 26695). The description is as above.
The target in test [6] is Cagβ-AAD1 E396A (Helicobacter pylori 26695). The test is described as above.
Test [7] addresses Cagβ-AAD1 K388A (Helicobacter pylori 26695). The test is described as above.
In test [8] the target is Cagβ-AAD1 N449A (Helicobacter pylori 26695). Described as above.
Test [9] deals with Cagβ-AAD1 R375A (Helicobacter pylori 26695). The description is as above.
Test [10] concerns the target Cagβ-AAD1 Y374F (Helicobacter pylori 26695). Described as above.
The target of test [11] is Cagβ-AAD1 N361A (Helicobacter pylori 26695). The test is described as above.
Test [12] concerns the target Cagβ-AAD1 S453A (Helicobacter pylori 26695). Described as above.
Test [13] deals with Cagβ1 (soluble region of Cagβ, residues 166–748) (Helicobacter pylori 26695) (UniProt O25260). As to the kind of experiment: mass photometry; Cagβ1/CagZ complex (co-expressed, co-purified) at 0.06 µM; OneMP instrument (Refeyn).
In test [14] the target is Cagβ-AAD1 F358A (Helicobacter pylori 26695). The experiment in a line: ITC; ITC-200 at 25 °C; 20 mM Tris pH 8.0, 150 mM NaCl; Cagβ proteins (20 µM) in the cell, CagZ proteins or peptides (200 µM) in the syringe.
The target of test [15] is Cagβ-AAD1 N365A (Helicobacter pylori 26695). Described as above.
Test [16] concerns the target Cagβ-AAD1 D335A (Helicobacter pylori 26695). The description is as above.
Test [17] deals with Cagβ-AAD1 T338A (Helicobacter pylori 26695). The description is as above.
Test [18] deals with Cagβ-AAD1 E462A (Helicobacter pylori 26695). Described as above.
Test [19] deals with Cagβ-AAD1 D356A (Helicobacter pylori 26695). The test is described as above.
Test [20] addresses T1, CagZ (residues 2-199), wild type (Helicobacter pylori 26695, UniProt B5Z6P9 2-199).
T1 construct: CagZ of Helicobacter pylori 26695, residues 2-199; also called CagZ-WT; source: E. coli BL21 star (DE3), purified (Ni-NTA, TEV, second Ni-NTA, SEC); not shown: His6, N-terminal, cleaved; TrxA, N-terminal, cleaved
T1 sequence: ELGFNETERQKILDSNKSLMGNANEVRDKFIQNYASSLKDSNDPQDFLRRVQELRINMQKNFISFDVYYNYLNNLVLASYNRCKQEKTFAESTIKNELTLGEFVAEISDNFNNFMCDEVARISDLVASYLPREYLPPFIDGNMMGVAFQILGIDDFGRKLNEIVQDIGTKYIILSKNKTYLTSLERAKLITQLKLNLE
As to the kind of experiment: ITC; ITC-200, 25 °C, 20 mM Tris pH 8.0, 150 mM NaCl; Cagβ proteins (20 µM) in the cell, CagZ proteins (200 µM) in the syringe. The note with it: both partners purified.

Test [21] addresses T2, Cagβ-AAD1 (residues 289-488), wild type (Helicobacter pylori 26695, UniProt O25260 289-488).
T2 construct: Cagβ (HP0524, Cag5) of Helicobacter pylori 26695, residues 289-488, holds the all-alpha domain (AAD); also called Cagβ-AAD1_WT; Cagβ-AAD1 (289-488); source: E. coli BL21 star (DE3), purified (Ni-NTA, TEV, second Ni-NTA, SEC); not shown: His6, N-terminal, cleaved; TrxA, N-terminal, cleaved
T2 sequence: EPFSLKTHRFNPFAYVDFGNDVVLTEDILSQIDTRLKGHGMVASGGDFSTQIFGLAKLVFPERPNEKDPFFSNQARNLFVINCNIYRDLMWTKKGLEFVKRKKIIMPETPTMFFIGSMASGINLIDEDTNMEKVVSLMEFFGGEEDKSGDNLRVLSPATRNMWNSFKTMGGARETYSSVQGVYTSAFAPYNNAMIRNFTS
The description is as above. To be noted: both partners purified.

Test [22] concerns the target T3, Cagβ-AAD1 (all-alpha domain of Cagβ, residues 289–488) (Helicobacter pylori 26695, UniProt O25260 289-488).
T3 construct: Cagβ (HP0524, Cag5) of H. pylori 26695, residues 289-488, holding the all-alpha domain (AAD); source: E. coli BL21 star (DE3), purified (Ni-NTA, TEV cleavage, second Ni-NTA, SEC); not shown: His6, N-terminal, cleaved; TrxA, N-terminal, cleaved
T3 sequence: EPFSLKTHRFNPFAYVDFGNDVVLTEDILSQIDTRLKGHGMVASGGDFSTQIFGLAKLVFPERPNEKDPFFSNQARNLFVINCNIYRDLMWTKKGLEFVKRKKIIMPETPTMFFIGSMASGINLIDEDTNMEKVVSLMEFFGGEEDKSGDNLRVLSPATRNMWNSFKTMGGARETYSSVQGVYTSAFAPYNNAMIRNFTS
The experiment in a line: ITC; ITC-200 at 25 °C; 20 mM Tris pH 8.0, 150 mM NaCl; Cagβ proteins (20 µM) in the cell, CagZ proteins or peptides (200 µM) in the syringe. The note with it: both partners purified.

CagZ R159A (natural protein) had an equilibrium dissociation constant (Kd) in test [1] of 0.04 µM.
Regarding CagZ E199A (natural protein), the Kd in test [2] turned out to be 0.04 µM.
CagZ D125A (natural protein) showed a dissociation constant (Kd) in [3] of 0.06 µM.
CagZ S184A (natural protein) registered a dissociation constant (Kd) in [2] of 0.07 µM.
As for CagZ K85A (natural protein), the Kd in [4] was 0.08 µM.
Regarding “CagZ (residues 2–199), expressed separately from pET-32a (from UniProt O25261 2-199) (natural protein)”, the dissociation constant Kd in test [5] came to 0.07 µM; in test [6], 0.04 µM; in test [7], 0.04 µM; in [8], 0.02 µM; in [9], 1.46 µM; in [10], 0.02 µM.
Regarding CagZ R187A (natural protein), the Kd in test [2] was 16.9 µM.
In [4], CagZ Y81F (natural protein) showed a dissociation constant Kd of 0.09 µM.
In the case of CagZ D155A (natural protein), the Kd in [11] was found to be 0.06 µM.
CagZ S124A (natural protein): the Kd in test [12] was 0.02 µM.
As to CagZ Y181A (natural protein), the dissociation constant (Kd) is 0.56 µM in [2] and 35.7 µM in test [9].
On to “CagZ co-expressed with Cagβ1 from pET-28a (natural protein)”, for which, in test [13], the percent of the protein in the 1:1 complex was found to be 88% and the stoichiometry N was found to be 1.
With CagZ F149A (natural protein), in test [14], the dissociation constant (Kd) is 0.41 µM.
In test [15], CagZ N162A (natural protein) had an equilibrium dissociation constant (Kd) of 0.04 µM.
As for CagZ T170A (natural protein), the dissociation constant (Kd) in [16] and in test [17] was 0.09 µM in each case.
Consider CagZ R133A (natural protein), for which the dissociation constant Kd in [18] amounted to 0.02 µM.
In test [2], CagZ N178A/Y181A (natural protein) returned an equilibrium dissociation constant (Kd) of 1.5 µM.
In test [19], CagZ Q150A (natural protein) gave a Kd of 0.05 µM.
Take CagZ N178A (natural protein): the dissociation constant (Kd) in [2] was determined as 0.15 µM; in [9] it was 8.77 µM.

B1: Cagβ-AAD3 (residues 299-488) (domain or fragment)
chain: NPFAYVDFGNDVVLTEDILSQIDTRLKGHGMVASGGDFSTQIFGLAKLVFPERPNEKDPFFSNQARNLFVINCNIYRDLMWTKKGLEFVKRKKIIMPETPTMFFIGSMASGINLIDEDTNMEKVVSLMEFFGGEEDKSGDNLRVLSPATRNMWNSFKTMGGARETYSSVQGVYTSAFAPYNNAMIRNFTS
notes: Cagβ (HP0524, Cag5) of Helicobacter pylori 26695, residues 299-488, holds the all-alpha domain (AAD); also called Cagβ-AAD3 (299-488); source: E. coli BL21 star (DE3), purified (Ni-NTA, TEV, second Ni-NTA, SEC); not shown: His6, N-terminal, cleaved; TrxA, N-terminal, cleaved
With B1, the affinity in test [20], expressed as Kd, was 0.19 µM.

B2: CagZ (residues 2-199) E199A (natural protein)
chain: ELGFNETERQKILDSNKSLMGNANEVRDKFIQNYASSLKDSNDPQDFLRRVQELRINMQKNFISFDVYYNYLNNLVLASYNRCKQEKTFAESTIKNELTLGEFVAEISDNFNNFMCDEVARISDLVASYLPREYLPPFIDGNMMGVAFQILGIDDFGRKLNEIVQDIGTKYIILSKNKTYLTSLERAKLITQLKLNLA
notes: CagZ of Helicobacter pylori 26695, residues 2-199, with E199A; source: E. coli BL21 star (DE3), purified as the wild type but without TEV protease treatment; not shown: His6, N-terminal, kept; TrxA, N-terminal, kept
In the case of B2, the dissociation constant (Kd) in [21] was ~0.05 µM.

B3: CagZ (residues 2–199), expressed separately from pET-32a (natural protein)
chain: ELGFNEAERQKILDSNSSLMGNANEVRDKFIQNYASSLKDSNDPQDFLRRVQELRINMQKNFISFDVYYNYLNNLVLASYNRCKQEKTFAESTIKNELTLGEFVAEISDNFNNFMCDEVARISDLVASYLPREYLPPFIDGNMMGVAFQILGIDDFGRKLNEIVQDIGTKYIILSKNKTYLTSLERAKLITQLKLNLE
notes: CagZ of H. pylori 26695, residues 2-199; also called WT; full-length CagZ; source: E. coli BL21 star (DE3), purified (Ni-NTA, TEV cleavage, second Ni-NTA, SEC); not shown: His6, N-terminal, cleaved; TrxA, N-terminal, cleaved
On to B3, for which, in test [22], the Kd came to 0.09 µM.

B4: CagZ-20 (peptide of the CagZ C-terminal tail, residues 176–195) (peptide)
peptide: SKNKTYLTSLERAKLITQLK
notes: CagZ of H. pylori, C-terminal tail, residues 176-195; source: synthetic peptide (Genscript)
B4 yielded a Kd in [22] of 42 µM.

B5: CagZ-24 (peptide of the CagZ C-terminal tail, residues 176–199) (peptide)
peptide: SKNKTYLTSLERAKLITQLKLNLE
notes: CagZ of H. pylori, C-terminal tail, residues 176-199; source: synthetic peptide (Genscript)
Turning to B5, in [22], the Kd turned out to be 0.33 µM.
